Reference: article PMC12311110

Columns and labels:
endogenous VPS26, O75436 = assay: GFP-based co-IP, western blot band quantification; conditions: chain shown with the change; HEK293T cells, transient transfection; normalised to GFP band intensity; n = 3; parent: est. 100; read off a plot
VPS35, Q96QK1 = assay: GFP-based co-IP, western blot band quantification; conditions: chain shown with the change; HEK293T cells, transient transfection; normalised to GFP band intensity; n = 3; parent: est. 100; read off a plot

B1: GFP-DENND4C fragment 1087-1271, WT, Q5VZ89 Y1239D (protein)
chain: PKTSLLHIARTHSFENVSCHLPDSRTCMSESTWNPEHRSSPVPEMLEESQELLEPVVDDVPKTTATVDTYESLLSDSNSNQSRDLKTVSKDLRNKRSSLYGIAKVVQREDVETGLDPLSLLATECTGGKTPDSEDKLFSPVIARNLADEIESDMNLKSPLGSKSSSMELHREENRESGMTTAFIH
Endogenous VPS26, O75436
  percent of parent (relative intensity (WT = 100)): 18
VPS35, Q96QK1
  percent of parent (relative intensity (WT = 100)): 22
